The text below walks through data of patent US5679770A, “Polypeptide, DNA fragment encoding the same, drug composition containing the same and process for producing the same” (Mochida Pharmaceutical Co., Ltd., priority 1991, dated 1997).

One assay addresses T1, Bovine trypsin (Bos taurus, UniProt P00760).
T1 construct: purchased Sigma Chemical Co. Type XIII
T1 sequence (P00760 24-246): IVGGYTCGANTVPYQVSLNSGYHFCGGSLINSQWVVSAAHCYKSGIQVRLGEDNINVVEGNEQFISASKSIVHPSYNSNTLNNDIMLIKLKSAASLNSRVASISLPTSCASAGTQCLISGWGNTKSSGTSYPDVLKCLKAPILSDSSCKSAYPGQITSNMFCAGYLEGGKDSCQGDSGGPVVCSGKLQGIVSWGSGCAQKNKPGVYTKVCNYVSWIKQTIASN
The experiment in a line: Bovine trypsin-inhibiting activity (synthetic substrate S-2444). The class given is biochemical. Conditions: purified polypeptide, serially diluted. On the procedure:
The purified polypeptide of the present invention was dissolved in 100 μl of distilled water, and the solution was serially diluted with a 0.1% BSA/0.2M triethanolamine-HCl buffer (pH 7.8) for use in the activity measurement. Measurement of the trypsin-inhibiting activity in the thus prepared test sample was carried out in accordance with the Kassell's method (Kassell, B. et al., Methods in Enzymology, vol.19, pp.844-852, 1970) using a synthetic substrate S-2444 (Daiichi Pure Chemicals Co., Ltd.).
Bovine trypsin (Type XIII, Sigma Chemical Co.) was dissolved in 0.001M HCl to a final concentration of 13,600 BAEEU/ml and the solution was further diluted with 0.1% BSA/0.2M triethanolamine-HCl buffer (pH 7.8) to prepare 1.2 BAEEU/ml of trypsin solution. Separately from this, 2 mM solution of the synthetic substrate S-2444 was prepared by dissolving it in distilled water. Next, 100 μl of the test sample was mixed with 100 μl of the trypsin solution. After incubating statically at 37° C. for 10 minutes, 50 μl of the S-2444 solution was added to start the reaction. The reaction was carried out at 37° C. for 15 minutes and then stopped by adding 50 μl of 50% acetic acid solution to the reaction mixture. Thereafter, absorbance at a wavelength of 405 nm was measured using a spectrophotometer. In this instance, in order to eliminate absorbancy of various contents in the reaction mixture other than the reaction product, a blank solution was prepared by mixing 100 μl of the bovine trypsin solution with 50 μl of 50% acetic acid and then with 100 μl of each test sample and 50 μl of the S-2444 solution.

The target of another assay is T2, human trypsin (Homo sapiens, UniProt P07477).
T2 construct: purchased Calbiochem
Put plainly: Human trypsin-inhibiting activity (synthetic substrate S-2444). It counts as biochemical. Conditions: purified polypeptide, various concentration levels. On the procedure:
The purified polypeptide of the present invention was dissolved in 100 μl of distilled water. Concentration of polypeptide in the thus prepared solution was determined based on its bovine trypsin-inhibiting activity measured in accordance with the above procedure (1) using UTI (Mochida Pharmaceutical Co., Ltd.; cf. H. Ohnishi et al., Nippon Yakurigaku Zasshi, vol.85, pp.1-6, 1985) as a standard. The polypeptide solution was then diluted to various concentration levels with 0.03% BSA/0.2M triethanolamine-HCl buffer (pH 7.8) for use in the activity measurement. Separately from this, human trypsin (Calbiochem) was dissolved in 1 mM HCl to a concentration of 1,000 SU/ml and the solution was further diluted with the 0.03% BSA/0.2M triethanolamine-HCl buffer (pH 7.8) to prepare a 1.25 SU/ml solution of human trypsin. Thereafter, human trypsin-inhibiting activity was measured in the same manner as described in the above procedure (1) using the aforementioned synthetic substrate S-2444. Separately from this, polypeptide AN68 (sequence described in Example 17(3)) was diluted to various concentration levels. Thereafter, human trypsin-inhibiting activity was measured in the same manner as described in the above procedure (1) and compared with the trypsin-inhibiting activity of the novel polypeptide of the present invention.

B1: R11Q/Q19K/Y46D: formula 1 sequence with Gln for position 7 Arg, Lys for position 15 Gln, Asp for position 42 Tyr; SEQ. I.D. NO. 37 (protein)
chain: AACNLPIVQGPCRAFIKLWAFDAVKGKCVLFPYGGCQGNGNKFDSEKECREYCGVPGDGDEELLRFSN
In the case of B1, the bovine trypsin inhibition entry with Bovine trypsin is “can inhibit bovine trypsin in a concentration-dependent manner”. For the same molecule, in the assay with human trypsin, the human trypsin inhibition entry is on record as “can inhibit human trypsin in a concentration-dependent manner”.

B2: R11A/Q19K/Y46D: formula 1 sequence with Ala for position 7 Arg, Lys for position 15 Gln, Asp for position 42 Tyr; SEQ. I.D. NO. 43 (protein)
chain: AACNLPIVAGPCRAFIKLWAFDAVKGKCVLFPYGGCQGNGNKFDSEKECREYCGVPGDGDEELLRFSN
For the molecule B2, the bovine trypsin inhibition entry with Bovine trypsin is “can inhibit bovine trypsin in a concentration-dependent manner”. For the same molecule, the human trypsin inhibition entry with human trypsin was “can inhibit human trypsin in a concentration-dependent manner”.

B3: R11E/Q19K/Y46E: formula 1 sequence with Glu for position 7 Arg, Lys for position 15 Gln, Glu for position 42 Tyr; SEQ. I.D. NO. 40 (protein)
chain: AACNLPIVEGPCRAFIKLWAFDAVKGKCVLFPYGGCQGNGNKFESEKECREYCGVPGDGDEELLRFSN
B3: the bovine trypsin inhibition result with Bovine trypsin is listed as “can inhibit bovine trypsin in a concentration-dependent manner”. Further, in the assay with human trypsin, the human trypsin inhibition entry is “can inhibit human trypsin in a concentration-dependent manner”.

B4: R11S/Q19K/Y46D: formula 1 sequence with Ser for position 7 Arg, Lys for position 15 Gln, Asp for position 42 Tyr; SEQ. I.D. NO. 42 (protein)
chain: AACNLPIVSGPCRAFIKLWAFDAVKGKCVLFPYGGCQGNGNKFDSEKECREYCGVPGDGDEELLRFSN
For B4, the bovine trypsin inhibition entry with Bovine trypsin is “can inhibit bovine trypsin in a concentration-dependent manner”. Besides, the human trypsin inhibition result with human trypsin is reported as “can inhibit human trypsin in a concentration-dependent manner”.

B5: R11L/Q19K/Y46D: formula 1 sequence with Leu for position 7 Arg, Lys for position 15 Gln, Asp for position 42 Tyr; SEQ. I.D. NO. 39 (protein)
chain: AACNLPIVLGPCRAFIKLWAFDAVKGKCVLFPYGGCQGNGNKFDSEKECREYCGVPGDGDEELLRFSN
Take B5: in the assay with Bovine trypsin, the bovine trypsin inhibition entry was “can inhibit bovine trypsin in a concentration-dependent manner”. Further, in the assay with human trypsin, the human trypsin inhibition entry is given as “can inhibit human trypsin in a concentration-dependent manner”.

B6: R11N/Q19K/Y46D: formula 1 sequence with Asn for position 7 Arg, Lys for position 15 Gln, Asp for position 42 Tyr; SEQ. I.D. NO. 41 (protein)
chain: AACNLPIVNGPCRAFIKLWAFDAVKGKCVLFPYGGCQGNGNKFDSEKECREYCGVPGDGDEELLRFSN
As to B6, the bovine trypsin inhibition result with Bovine trypsin was “can inhibit bovine trypsin in a concentration-dependent manner”. Moreover, the human trypsin inhibition result with human trypsin was “can inhibit human trypsin in a concentration-dependent manner”.

B7: R11D/Q19K/Y46D: formula 1 sequence with Asp for position 7 Arg, Lys for position 15 Gln, Asp for position 42 Tyr; SEQ. I.D. NO. 38 (protein)
chain: AACNLPIVDGPCRAFIKLWAFDAVKGKCVLFPYGGCQGNGNKFDSEKECREYCGVPGDGDEELLRFSN
For B7, in the assay with Bovine trypsin, the bovine trypsin inhibition entry is on record as “can inhibit bovine trypsin in a concentration-dependent manner”. In the assay with human trypsin, the human trypsin inhibition entry is reported as “can inhibit human trypsin in a concentration-dependent manner”.
